{"source": "ChEMBL document CHEMBL2311350", "about": "“Discovery of a novel phenylethyl benzamide glucokinase activator for the treatment of type 2 diabetes mellitus” (Bioorg Med Chem Lett, 2013)", "proteins": {"B1": {"name": "Hexokinase-4 (Homo sapiens), P35557 (protein)", "chain": "MLDDRARMEAAKKEKVEQILAEFQLQEEDLKKVMRRMQKEMDRGLRLETHEEASVKMLPTYVRSTPEGSEVGDFLSLDLGGTNFRVMLVKVGEGEEGQWSVKTKHQMYSIPEDAMTGTAEMLFDYISECISDFLDKHQMKHKKLPLGFTFSFPVRHEDIDKGILLNWTKGFKASGAEGNNVVGLLRDAIKRRGDFEMDVVAMVNDTVATMISCYYEDHQCEVGMIVGTGCNACYMEEMQNVELVEGDEGRMCVNTEWGAFGDSGELDEFLLEYDRLVDESSANPGQQLYEKLIGGKYMGELVRLVLLRLVDENLLFHGEASEQLRTRGAFETRFVSQVESDTGDRKQIYNILSTLGLRPSTTDCDIVRRACESVSTRAAHMCSAGLAGVINRMRESRSEDVMRITVGVDGSVYKLHPSFKERFHASVRRLTPSCEITFIESEEGSGRGAALVSAVACKKACMLGQ"}}, "target": "Glucokinase (Homo sapiens)", "experiment": "Induction of human pancreatic glucokinase activity assessed as maximal reaction rate at 5 mM glucose concentration"}
{"protein": "B1", "values": [{"measurement": "Vmax", "value": 130, "unit": "%"}]}
